Source: paper PMC6697062

Legend:
[1] = molecular target: C6B/IGKV3-15*01 one-armed SEEDbody; assay: BLI; C6B oaSEEDbody on anti-Fab tips; association with 100 nM CEACAM6 at pH 7.4, dissociation at pH 7.4; 1:1 model
[2] = molecular target: C6B/CV2 one-armed SEEDbody; assay: as above
[3] = molecular target: C6B/IGKV3-15*01 one-armed SEEDbody; assay: BLI; C6B oaSEEDbody on anti-Fab tips; association with 100 nM CEACAM6 at pH 7.4, dissociation at pH 6.0
[4] = molecular target: C6B/CV2 one-armed SEEDbody; assay: as above
[5] = molecular target: C6B/IGKV3-15*01 one-armed SEEDbody; assay: BLI; C6B oaSEEDbody on anti-Fab tips; association with 100 nM CEACAM6 at pH 7.4, dissociation at pH 5.0
[6] = molecular target: C6B/CV2 one-armed SEEDbody; assay: as above
[7] = molecular target: C5A + K40 one-armed SEEDbody; assay: BLI; oaSEEDbody on anti-human Fc (AHC) tips; association with 100 nM CEACAM5 at pH 7.4, dissociation at pH 7.4 in kinetic buffer (PBS, 0.1% Tween 20, 1% BSA); 30 C; 1:1 model
[8] = molecular target: C5A + CV3 one-armed SEEDbody; assay: as above
[9] = molecular target: C5A + K39 one-armed SEEDbody; assay: as above
[10] = molecular target: C5A + IGKV3-15*01 one-armed SEEDbody; assay: as above
[11] = molecular target: C5A + CV2 one-armed SEEDbody; assay: as above
[12] = molecular target: C5A + CV1 one-armed SEEDbody; assay: as above

Sequence of CEACAM6 (P40199 35-320): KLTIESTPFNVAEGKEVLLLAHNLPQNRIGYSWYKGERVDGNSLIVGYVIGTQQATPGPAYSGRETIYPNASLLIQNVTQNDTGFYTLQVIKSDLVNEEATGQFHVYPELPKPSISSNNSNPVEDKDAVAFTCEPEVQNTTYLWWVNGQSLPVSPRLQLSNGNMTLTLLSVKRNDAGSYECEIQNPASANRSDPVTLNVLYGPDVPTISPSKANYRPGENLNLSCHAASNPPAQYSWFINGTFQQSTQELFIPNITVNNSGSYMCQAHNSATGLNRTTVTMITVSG

Kd [1] [nM]	koff [1] [s⁻¹]	Kd [2] [nM]	koff [2] [s⁻¹]	koff [3] [s⁻¹]	koff [4] [s⁻¹]	koff [5] [s⁻¹]	koff [6] [s⁻¹]	Kd [7] [nM]	Kd [8] [nM]	Kd [9] [nM]	Kd [10] [nM]	Kd [11] [nM]	Kd [12] [nM]	Substance
8.77	0.000158	7.73	0.000262	0.00019	0.000142	0.000361	0.000768	–	–	–	–	–	–	CEACAM6 (from UniProt P40199 35-320) (natural protein)
–	–	–	–	–	–	–	–	3.12	2.55	4.16	0.9	4.14	4.11	recombinant human His-tagged CEACAM5 (from UniProt P06731 35-685) (natural protein)
